Measured values taken from paper PMC11672854, “A High-Affinity Monoclonal Antibody Against the Pancreatic Ductal Adenocarcinoma Target, Anterior Gradient-2 (AGR2/PDIA17)” (Antibodies, 2024).

T1: LY6/PLAUR Domain Containing 3, LYPD3 (31-325) with C-terminal 6x-His tag (UniProt O95274 31-325)
T1 construct: LY6/PLAUR Domain Containing 3 (LYPD3, C4.4A), residues 31-325; also called C4.4A; source: expi293F, transfected, secreted, purified from media (HisTrap Excel); not shown: His6, C-terminal, kept
T1 sequence (looked up): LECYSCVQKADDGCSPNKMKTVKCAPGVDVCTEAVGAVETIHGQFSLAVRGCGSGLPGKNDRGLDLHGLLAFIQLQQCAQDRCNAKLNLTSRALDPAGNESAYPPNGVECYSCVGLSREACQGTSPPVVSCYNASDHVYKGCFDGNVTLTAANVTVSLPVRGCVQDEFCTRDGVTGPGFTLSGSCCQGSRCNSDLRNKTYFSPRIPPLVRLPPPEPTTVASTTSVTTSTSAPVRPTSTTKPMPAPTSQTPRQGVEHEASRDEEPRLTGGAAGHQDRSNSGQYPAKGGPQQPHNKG


Legend:
[1] = target: T2, Anterior Gradient-2 (AGR2/PDIA17), AGR2 (21-175), 6x-His tag removed (human, UniProt O95994)
[2] = target: T2, Anterior Gradient-2 (AGR2/PDIA17), AGR2 …; experiment: ELISA; MaxiSorp plates coated with 1 µg AGR2 (wild type or mutant), PDI, TXN or BSA; varying MAb in 50 mM Tris, 140 mM NaCl, 1% BSA, 0.05% Tween 20, pH 8.0, 1 h at 37 °C; detection with Protein L-peroxidase; conditions: both partners purified
[3] = target: T1, LY6/PLAUR Domain Containing 3, LYPD3 …; experiment: ELISA; MaxiSorp plates coated with 1 µg AGR2 (or BSA); varying LYPD3 in 50 mM Tris, 140 mM NaCl, 1% BSA, 0.05% Tween 20, pH 8.0, 1 h at 37 °C; detection with anti-6x-His-peroxidase; conditions: both partners purified

EC50 [2] [nM] | Binder | other results
 | S31R/A53Y/T59P (antibody, V domains shown) VH: EVQLLESGGGLVQPGGSLRLSCAASGFTFSRYAMSWVRQAPGKGLEWVSGISYQGAHTPYADSVKGRFTISRDNSKNTLYLQMNSLRAEDTAVYYCAKTYKGFDYWGQGTLVTVSS VL: DIQMTQSPSSLSASVGDRVTITCRASQSISSYLNWYQQKPGKAPKLLIYSASRLQSGVPSRFSGSGSGTDFTLTISSLQPEDFATYYCQQGRRMPPTFGQGTKVEIK | binding result [1]: binds
0.156 | affinity-matured anti-AGR2 MAb S31R (VH mutant of MAb-15, human IgG1) (antibody, V domains shown, as the VH of m4 (scFv-15) with the stated change; human IgG1 heavy chain constant region; IgG1; source: expi293F, transfected, purified from media (rProteinA)) VH: EVQLLESGGGLVQPGGSLRLSCAASGFTFSRYAMSWVRQAPGKGLEWVSGISAQGAHTTYADSVKGRFTISRDNSKNTLYLQMNSLRAEDTAVYYCAKTYKGFDYWGQGTLVTVSS VL: DIQMTQSPSSLSASVGDRVTITCRASQSISSYLNWYQQKPGKAPKLLIYSASRLQSGVPSRFSGSGSGTDFTLTISSLQPEDFATYYCQQGRRMPPTFGQGTKVEIK | 
0.0404 | affinity-matured anti-AGR2 MAb S31R/A53Y (VH mutant of MAb-15, human IgG1) (antibody, V domains shown, as the VH of m4 (scFv-15) with the stated changes; human IgG1 heavy chain constant region; IgG1; also called anti-AGR2 MAb clone S31R/A53Y; source: expi293F, transfected, purified from media (rProteinA)) VH: EVQLLESGGGLVQPGGSLRLSCAASGFTFSRYAMSWVRQAPGKGLEWVSGISYQGAHTTYADSVKGRFTISRDNSKNTLYLQMNSLRAEDTAVYYCAKTYKGFDYWGQGTLVTVSS VL: DIQMTQSPSSLSASVGDRVTITCRASQSISSYLNWYQQKPGKAPKLLIYSASRLQSGVPSRFSGSGSGTDFTLTISSLQPEDFATYYCQQGRRMPPTFGQGTKVEIK | 
2.03 | anti-AGR2 monoclonal antibody MAb-15 (VH-VL of scFv-15 in a full human IgG1 backbone) (antibody, V domains shown, VH of scFv-15 (as the VH of m3); human IgG1 heavy chain constant region (full human IgG1 backbone); VL of scFv-15 (as the VL of m3); light chain constant region; IgG1; also called original anti-AGR2 antibody; parent MAb-15; source: expi293F, transfected, purified from media (rProteinA)) VH: EVQLLESGGGLVQPGGSLRLSCAASGFTFSSYAMSWVRQAPGKGLEWVSGISAQGAHTTYADSVKGRFTISRDNSKNTLYLQMNSLRAEDTAVYYCAKTYKGFDYWGQGTLVTVSS VL: DIQMTQSPSSLSASVGDRVTITCRASQSISSYLNWYQQKPGKAPKLLIYSASRLQSGVPSRFSGSGSGTDFTLTISSLQPEDFATYYCQQGRRMPPTFGQGTKVEIK | 
0.0385 | affinity-matured anti-AGR2 MAb S31R/A53F (VH mutant of MAb-15, human IgG1) (antibody, V domains shown, as the VH of m4 (scFv-15) with the stated changes; human IgG1 heavy chain constant region; IgG1; source: expi293F, transfected, purified from media (rProteinA)) VH: EVQLLESGGGLVQPGGSLRLSCAASGFTFSRYAMSWVRQAPGKGLEWVSGISFQGAHTTYADSVKGRFTISRDNSKNTLYLQMNSLRAEDTAVYYCAKTYKGFDYWGQGTLVTVSS VL: DIQMTQSPSSLSASVGDRVTITCRASQSISSYLNWYQQKPGKAPKLLIYSASRLQSGVPSRFSGSGSGTDFTLTISSLQPEDFATYYCQQGRRMPPTFGQGTKVEIK | 
 | S31R/A53F/T59P (antibody, V domains shown) VH: EVQLLESGGGLVQPGGSLRLSCAASGFTFSRYAMSWVRQAPGKGLEWVSGISFQGAHTPYADSVKGRFTISRDNSKNTLYLQMNSLRAEDTAVYYCAKTYKGFDYWGQGTLVTVSS VL: DIQMTQSPSSLSASVGDRVTITCRASQSISSYLNWYQQKPGKAPKLLIYSASRLQSGVPSRFSGSGSGTDFTLTISSLQPEDFATYYCQQGRRMPPTFGQGTKVEIK | binding result [1]: binds
 | Anterior Gradient-2 (AGR2/PDIA17), AGR2 (21-175), 6x-His tag removed (natural protein, human, UniProt O95994 21-175, looked up, Anterior Gradient-2 (AGR2/PDIA17), human, residues 21-175; tag removed with 8x-His-TEV; also called rAGR2; recombinant AGR2; source: E. coli BL21(DE3), purified (HisTrap, TEV cleavage, second HisTrap flow-through); not shown: His6, N-terminal, cleaved) RDTTVKPGAKKDTKDSRPKLPQTLSRGWGDQLIWTQTYEEALYKSKTSNKPLMIIHHLDECPHSQALKKVFAENKEIQKLAEQFVLLNLVYETTDKHLSPDGQYVPRIMFVDPSLTVRADITGRYSNRLYAYEPADTALLLDNMKKALKLLKTEL | binding result [3]: binds
